# B1: Tannase II (Atan2p nativ, native Lipase) secreted by A. adeninivorans LS3, SEQ ID NO: 4 (Blastobotrys adeninivorans) (protein)
# chain: DAVTPPSEDPFYTPDDGYEKEEPGTILRWRHAPQMPAFTVFKQNLNASIQILYRTTDTQGQPTATVVTVMIPHNHAEGKLLSYQSWEDSAWINCAPSYAIQFGANPQGIISQVDMLTLQSALNEGWIVSTPDYEGPKSSFTSAIISGQATLDSIRAVLKSESFTGVKPDSKVAMWGYSGGSIASGWAAALQPTYAPELKIAGAALGGVIQNITSVAVQVNKGPFVGLVPAGIKGLSSQYPELEDYINDQLLPDKRDDFEKAGKQCLSVDVLTYAFQDWFSYTKAGDRVLYNETIQKVLDENAMGKQKPQIPLLFYHGVHDEVMPIADVDKLYYEYCSNGVTVEYYREEGSEHVLEMITGFPKAYNYVKNLLDGGSVSSGCQRHDVFSNAFDEDALPTYSAEIWGILKGLLGAPVGPAAIS
# B2: Tannase II (Atan2p rekombinant, rekombinante Lipase) secreted by A. adeninivorans G1211/pAL-ALEU2m-ATAN2, SEQ ID NO: 4 (Blastobotrys adeninivorans) (protein)
# chain: B1 chain
# Legend:
# [1] = test system: Arxula adeninivorans LS3 Tannase I (Atan1p), SEQ ID NO: 3; test: Tannase assay with rhodanine, KM determination with tannin; format: biochemical; conditions: tannin solution 0,05-0,75 mg/ml, 15 min at 30°C; Lineweaver-Burk plot; read-out: KM-Wert (Tannin)
# Procedure: (§1) Der Nachweis der Tannase mit Hilfe des Rhodanins, wurde nach einer Methode von Sharma et al. (Sharma S, Bhat TK, Dawra RK (2000) A spectrophotometric method for assay of tannase using Rhodanine. Anal. Biochem. 279: 85-89, 2000) durchgeführt.
# (§2) Als Test-Kontrolle wurden 450 µl Puffer und 50 µl eingeengter Kulturüberstand zusammenpipettiert. Als Blank-Kontrolle wurden 250 µl der Substratlösung und 250 µl Puffer zusammengegeben. Diese drei verschiedenen Ansätze wurden anschließend für 5 Min bei 30°C inkubiert. […] Nach anschließender Inkubation für 5 Min bei 30°C wurden weitere 200 µl 0,5 M KOH zugegeben. Nach wiederholter Inkubation bei 30°C für 5 Min wird die Absorbtion der verschiedenen Ansätze bei 520 nm im Spektrophotometer (UV160-A/Shimadzu) gegen Wasser gemessen. Die Absorption kann nach folgender Formel berechnet werden: ΔA520nm = (ATest-ABlank)-(AKontrolle-ABlank) [formula]
# (§3) Mit Hilfe einer Eichkurve wurde dann die entstandene Gallatmenge ermittelt. Einheiten/Enzym = ((μmol gebildetes Gallat/min)*(Vf))/((0, 05)) [formula] Vf = Verdünnungsfaktor 0,05 = eingesetztes Probevolumen (in Milliliter) Eine Einheit ist definiert als µmol gebildetes Gallat pro Minute.
# Zur Bestimmung des KM-Wertes wurde zu je 50 µl Tannase 250 µl Tanninlösung in Konzentrationen von 0,05 mg/ml bis 0,75 mg/ml zugegeben, alles 15 Min bei 30°C inkubiert und die Tannaseaktivität wie beschrieben ermittelt. […]
# [2] = molecular target: T1, Arxula adeninivorans LS3 Tannase II (Atan2p), SEQ ID NO: 4 (Blastobotrys adeninivorans, UniProt Q5GMI6); test: as above; format: biochemical; conditions: tannin solution 0,05-0,75 mg/ml, 15 min at 30°C; Lineweaver-Burk plot; read-out: KM-Wert (Tannin)
# T1 sequence (Q5GMI6 29-448): B1 chain
# Procedure: as §1, §2, §3
# Zur Bestimmung des KM-Wertes wurde zu je 50µl Tannase-Probe 250µl Tanninlösung in Konzentrationen von 0,05 mg/ml bis 0,75 mg/ml zugegeben, alles 15 Min bei 30°C inkubiert und die Tannaseaktivität gemessen. […]
# [3] = substrate: CCCCCCCCCC(=O)Oc1ccc([N+](=O)[O-])cc1; test: Lipase assay with p-nitrophenyl ester, native enzyme; format: biochemical, Arxula adeninivorans LS3; conditions: other: native lipase; pH 7.5; 30.0 °C
# Procedure: (§4) Für diese Bestimmung wurde eine frische Stammlösung (3mM […] in 10 ml Propanol durch 10 Min vortexen lösen) angesetzt. Für den Messansatz wurden 850 µl 0,05 M Na-Phosphat-Puffer pH 7,5 und 100 µl der Stammlösung gemischt und anschließend 50 µl Probelösung zugegeben. Als Kontrolle wurden 900 µl Puffer und 100 µl Stammlösung zusammengegeben. Beide Ansätze wurden für 5-10 Min bei 30°C inkubiert und anschließend 1 ml Aceton zum Abstoppen der Reaktion zugegeben. Danach wurde die Absorption bei 410 nm im Spektrometer (UV160-A/Shimadzu) gegen Wasser gemessen: Die Enzymaktivität kann dann nach folgender Formel berechnet werden: Einheiten/ml Enzym = ((ΔA410nm/min Test-ΔA410nm/min Blank)*(Vf))/((14, 800)*(0, 05)) [formula] Vf = Verdünnungsfaktor 14800 I mol^-1 cm^-1= Extinktionskoeffizient von p-Nitrophenol bei 410nm (Quinn et al. 1982) 0,05 = eingesetztes Probevolumen (in Milliliter) Eine Einheit ist definiert als µmol gebildetes p-Nitrophenol pro Minute.
# (§5) Da Atan2p eine sehr hohe Homologie zu Lipasen aufweist, wurde A. adeninivorans G1211/pAL-ALEU2m-ATAN2 parallel auf sekretorische Lipase-Aktivität mit p-Nitrophenyl-Caprate geprüft. Dazu erfolgte eine Anzucht in HMM + 2% Glukose bzw. HMM + 2% Xylitol, Bedingungen unter denen das native ATAN2-Gen nicht exprimiert wird, d. h. auch kein natives sekretorisches Atan2p auftritt. […]
# [4] = substrate: CCCCCCCCCC(=O)Oc1ccc([N+](=O)[O-])cc1; test: Lipase assay with p-nitrophenyl ester, recombinant enzyme; format: biochemical, Arxula adeninivorans; conditions: other: recombinant lipase; pH 7.5; 30.0 °C
# Procedure: as §4, §5
molecule,measurement,setting,value
Tannin,Km,[1],150 µM
same,Km,[2],1100 µM
B1,Km,[3],400 µM
same,Vmax,[3],"0,043 µmol x min^-1"
B2,Km,[4],710 µM
same,Vmax,[4],"0,036 µmol x min^-1"
